{"source": "patent US20260265697A1", "about": "“COMPOSITIONS AND METHODS OF PREPARING AIRWAY CELLS” (Yale University, priority 2014, published 2026)", "key": {"[1]": {"system": "human iPS cells", "assay": "Differentiation of human iPS cells to definitive endoderm (DE), flow cytometry at day 5", "type": "cell-based", "experimental": "iPS cells were first differentiated towards definitive endoderm (DE). DE cells were initiated under conditions described previously. Briefly, iPS cells were cultured in RPMI 1640 medium supplemented with 100 ng/ml activin A, 2 mM L-glutamine and 1% antibiotic-antimycotic for 48 hours. Then, 1×B27 supplement and 0.5 mM sodium butyrate were added into the same medium and iPS cells were cultured in this medium for 3 days with daily medium changes.\n(§1) For flow cytometry, cells were fixed with the fixation solution from the Fixation/Permeabilization kit (BD Biosciences), and stained with primary and detection antibodies as described by the manufacturer. Briefly cells were dissociated into single-cell suspensions by incubation with 0.25% trypsin for 2 min. The dissociated cells were resuspended (0.5×10^6 cells) in 250 μl of fixation/permeabilization solution, kept on ice for 20 min, and washed twice with Perm/Wash buffer. After blocking with blocking solution for 30 min on ice, the cells were incubated with corresponding primary antibody in the blocking solution for 30 min on ice. The cells were resuspended in 350 μl of Perm/Wash buffer after incubation with corresponding conjugated secondary for 30 min on ice, washed twice, and analyzed by flow cytometry.\nHuman iPS cells were differentiated to DE cells using serum free conditions (FIG. 1). By exposing iPS cells to saturating concentrations of activin A, greater than 85% endodermal cells were generated. […] 89% of cells were positive for c-kit (FIG. 2A), 91% positive for SOX17 (FIG. 2C), 93% positive for FOXA2 (FIG. 2B), and 88% of the cells expressed the endoderm surface marker CXCR4 (FIG. 2D) in clone C1."}, "[2]": {"system": "iPS cell-derived DE cells", "assay": "Anterior foregut endoderm (AFE) differentiation of DE cells, FOXA2+SOX2+ cells by flow cytometry", "type": "cell-based, human", "conditions": "day 7, flow cytometry, FIG. 3A", "experimental": "(§2) Subsequently, the DE cells were trypsinized and replated on human ECM protein coated plates and were differentiated to anterior foregut endoderm (AFE) by exposing them sequentially between days d5 to d7 to combinations of the small molecule inhibitors in IMDM with 10% FBS, 2 mM L-glutamine, 1 mM nonessential amino acids, 1% antibiotic-antimycotic.\nas §1, with “After blocking with blocking solution for 30 min on ice, the cells were incubated with corresponding primary antibody in the blocking solution for 30 min on ice.” left out, “cytometry. […]” for “cytometry.”\nBMP4 signaling is required for lung specification and an increase in bFGF and WNT concentration increases NKX2.1^+immature lung progenitors. […] The numbers of cells double positive for FOXA2^+SOX2^+anterior endoderm cells were quantified out of the total FOXA2^+endoderm cells by flow cytometry."}, "[3]": {"system": "iPS cell-derived DE cells", "assay": "Lung endoderm specification of DE cells, NKX2.1+ and NKX2.1+FOXA2+ cells", "type": "cell-based, human", "conditions": "FIG. 3B", "experimental": "as §2\nThen AFE cells were maintained in lung endoderm differentiation medium consisting of IMDM with 20% FBS, 2 mM L-glutamine, 1 mM nonessential amino acids, 1% antibiotic-antimycotic, retinoic acid (0.5 μM), bFGF (10 ng/ml), BMP4 (10 ng/ml), Wnt3a (100 ng/ml), and KGF (10 ng/ml each) for 5 days. […]\nFor flow cytometry, cells were fixed with the fixation solution from the Fixation/Permeabilization kit (BD Biosciences), and stained with primary and detection antibodies as described by the manufacturer. […] The cells were resuspended in 350 μl of Perm/Wash buffer after incubation with corresponding conjugated secondary for 30 min on ice, washed twice, and analyzed by flow cytometry.\nNKX2.1^+is the earliest marker of cells that distinguish future lung from other derivatives of the foregut endoderm. […] The percentages of NKX2.1^+ cells were quantified as percentages of the total cells present. […]"}, "[4]": {"conditions": "day 5, flow cytometry, clone C1"}}}
{"molecule": "activin A (protein, UniProt P08476 311-426, looked up, Inhibin beta A chain, agent that induces differentiation of iPS cells to definitive endoderm cells) Inhibin beta A chain: GLECDGKVNICCKKQFFVSFKDIGWNDWIIAPSGYHANYCEGECPSHIAGTSGSSLSFHSTVINHYRMRGHSPFANLKSCCVPTKLRPMSMLYYDDGQNIIKKDIQNMIVEECGCS", "values": [{"measurement": "cells expressing endoderm surface marker CXCR4", "setting": "[1]; [4]", "value": 88, "unit": "%"}, {"measurement": "cells positive for FOXA2", "setting": "[1]; [4]", "value": 93, "unit": "%"}, {"measurement": "cells positive for SOX17", "setting": "[1]; [4]", "value": 91, "unit": "%"}, {"measurement": "cells positive for c-kit", "setting": "[1]; [4]", "value": 89, "unit": "%"}, {"measurement": "endodermal cells generated", "setting": "[1]; saturating concentrations of activin A, serum free conditions", "value": "greater than 85%"}, {"measurement": "number of FOXA2+SOX2+ anterior endoderm cells out of total FOXA2+ endoderm cells", "setting": "[2]", "value": "rare"}, {"measurement": "number of NKX2.1+ cells (percentage of total cells)", "setting": "[3]", "value": "few"}]}
